Source: publication PMC6637311, “Glyceraldehyde-3-Phosphate Dehydrogenase of Babesia microti Is a Plasminogen- and Actin-Binding Protein” (Frontiers in Veterinary Science, 2019)

System: O=C[C@H](O)COP(=O)(O)O
Test: purified protein
Conditions: 0.5 mM NAD+, 50 mM glycine, 50 mM KH2PO4, 5 mM EDTA, pH 9.5, 25 °C

**Q.** rBmGAPDH (Babesia microti strain RI) was tested. Which Km did it give?
**A.** 583 µM
